Literature values, collected in publication PMC3433420.
Where two headings read alike, the source gives them in different places.

How the values were obtained:
Conditions in all cases: cited from earlier work
SYK-NC (Homo sapiens) = SYK-NC (Homo sapiens) (UniProt P43405)
BLK (Homo sapiens) = BLK (Homo sapiens) (UniProt P51451)
ABL2 (Homo sapiens) [1] = biological target: ABL2 (Homo sapiens) (UniProt P42684)
ABL2 (Homo sapiens) [2] = biological target: ABL2 (Homo sapiens) (UniProt P42684); remark: listed apart in the source
RASA1-N (Homo sapiens) [3] = biological target: RASA1-N (Homo sapiens) (UniProt P20936)
RASA1-N (Homo sapiens), sequence (P20936 176-446): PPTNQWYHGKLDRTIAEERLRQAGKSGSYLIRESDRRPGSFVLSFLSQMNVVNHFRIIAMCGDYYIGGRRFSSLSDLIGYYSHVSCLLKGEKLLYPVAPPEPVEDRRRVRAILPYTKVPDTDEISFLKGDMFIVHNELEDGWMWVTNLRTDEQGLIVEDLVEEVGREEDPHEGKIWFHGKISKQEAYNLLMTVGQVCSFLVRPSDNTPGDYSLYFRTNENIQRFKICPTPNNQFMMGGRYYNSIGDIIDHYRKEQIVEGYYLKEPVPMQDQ

RASA1-N (Homo sapiens) [4] = biological target: RASA1-N (Homo sapiens) (UniProt P20936); remark: listed apart in the source
YES1 (Homo sapiens) = YES1 (Homo sapiens) (UniProt P07947)
YES1 (Homo sapiens), sequence (P07947 153-260): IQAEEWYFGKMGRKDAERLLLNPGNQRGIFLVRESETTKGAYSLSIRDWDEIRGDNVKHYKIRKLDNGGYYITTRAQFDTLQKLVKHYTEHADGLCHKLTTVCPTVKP

SHB (Homo sapiens) = SHB (Homo sapiens) (UniProt Q15464)
SHB (Homo sapiens), sequence (Q15464 405-509): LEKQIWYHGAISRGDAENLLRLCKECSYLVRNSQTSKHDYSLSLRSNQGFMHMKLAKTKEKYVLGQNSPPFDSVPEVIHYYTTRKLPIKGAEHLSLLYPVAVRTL

ABL2 (Homo sapiens), sequence (P42684 168-268): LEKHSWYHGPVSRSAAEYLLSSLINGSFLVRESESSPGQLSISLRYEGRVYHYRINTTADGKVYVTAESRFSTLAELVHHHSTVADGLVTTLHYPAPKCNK
BLK (Homo sapiens), sequence (P51451 119-225): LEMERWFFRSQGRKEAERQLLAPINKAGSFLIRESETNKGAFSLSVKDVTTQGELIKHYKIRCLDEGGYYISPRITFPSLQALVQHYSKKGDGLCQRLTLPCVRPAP

## …pYDGIPASEd
SYK-NC (Homo sapiens)
  apparent Kd (screen): 1550 nM
BLK (Homo sapiens)
  apparent Kd (screen): 1180 nM
ABL2 (Homo sapiens) [1]
  apparent Kd (screen): 177 nM
ABL2 (Homo sapiens) [2]
  apparent Kd (screen): 137 nM
RASA1-N (Homo sapiens) [3]
  apparent Kd (screen): 1410 nM
RASA1-N (Homo sapiens) [4]
  apparent Kd (screen): 1470 nM
YES1 (Homo sapiens)
  apparent Kd (screen): 328 nM
SHB (Homo sapiens)
  apparent Kd (screen): 1060 nM
